Drawing on US20240191188A1, this text covers % of cells within gate for one substance.

The experiment deals with CD28 on the surface of T cells and PBMCs (human) (UniProt P10747). Kind of experiment: flow cytometry of live CD3+ cells of the CD28 positive fraction after D-biotin and washing; remaining anti-CD28 Fab monomers were detected with an antibody against the Ig kappa light chain. The same antibody on cells before selection (negative control, no Fab) gives 2.73. On the technique in general: In flow cytometry, cells or beads pass a laser one at a time.

The substance “αCD28 Fab fragment derived from the monoclonal anti-human CD28 antibody CD28.3, heavy chain carboxy-terminally fused to the Twin-Strep-tag (monomeric)” came in with a % of cells within gate of 5.91%.
